Measurements taken from patent US7666989B2 (priority 2003, dated 2010).
Several values for one entry are separate records, joined by “and”; a condition that tells them apart may be missing. Equal values may be shown once. Read-outs that look alike come from different tables or passages of the source. Marks after values point to notes of the source that are not given here.

Columns and labels:
[1] = Water solubility of the end product; assay type: physicochemical; settings: purified protein, white powder
Source text: Finally, the protein was purified by an ion exchange column and a gel filtration column Superdex 200 (Pharmacia) mounted in an AKTA HPLC system (Pharmacia). […] The end product was a white powder and was water soluble.

[2] = Side or toxic effects in treated tumor-bearing nude mice; assay type: in vivo, BALB/c-nu nude mice; settings: treated nude mice versus negative control; body weight and viability
Source text: No substantial difference in the parameters concerning the living status of mice, such as body weight and viability of the treated groups were observed compared with those of the negative control group, except that the sizes of tumor in the treated mice were smaller. […] Therefore, CPT may be used as an effective and safe medicament for treating cancers. CPT is both theoretically and industrially important and has a bright future in the market.

human brain glioma U251 = settings: U251 xenograft, ten injections; for Body Weight (g) Start / Tumor volume (mm^3) Start: baseline; for Inhibition rate (%): by tumor weight
Source text: In this example, the animals used were BALB/c-nu nude mice, 6-8 weeks old. For each experiment, all animals were of the same sex.
Tumor cell lines: human brain glioma U251, human lung cancer cell line NCI-H460, human colon cancer cell line COLO205 were inoculated from in vitro culture into nude mice subcutaneously, the tumors were subcultured and kept.
Experimental Procedures: well-grown nude mice carrying well-grown tumors were selected and sacrificed by disjointing neck vertebra. The tumors were removed aseptically and were cut into pieces having a diameter of 2-3 mm by a scalpel. The pieces were inoculated into the axilla of nude mice subcutaneously by a needle. […] The length and width of tumors were measured by a vernier caliper. The animals were then grouped based their tumor sizes. Each group included seven to eight animals.
The length, width of the tumor and the body weight of the mice were measured twice per week. The tumor volume (TV) and relative tumor volume (RTV) were calculated. A graph indicating the changes of tumor size was plotted. At the end of this experiment, the tumors were taken out and weighed after the mice were sacrificed, and the inhibition rates of the medicament on tumor growth were calculated.
The formula for calculating tumor volume (TV) is: length×width^2÷2.
The formula for calculating relative tumor volume (RTV) is: Vt/Vo (wherein Vo is the TV value measured when the administration is started, Vt is the TV value measured after that).
T-test was used to determine the statistical difference of tumor weights, tumor volumes and RTV etc. between different groups of animal. The index used for evaluating the anti-tumor activity is the relative tumor growth rate T/C (%), the formula for which is: […]
The evaluation standard for efficacy:
T/C (%)>60 is ineffective;
T/C (%)≦60 and P<0.05 after statistical analysis is effective.
The Carmustine (Renmin Pharmaceuticals, Amino Acid Inc. Tianjin, P. R. China) was used as the positive control, 40 mg/kg, administered by intraperitoneal injection for once. CPT was given to four groups at the doses of 0.6 mg/kg, 1.7 mg/kg, 5.0 mg/kg, 15.0 mg/kg respectively, administered by intraperitoneal injection. The treatment included ten injections.

B1: CPT: human recombinant circularly permuted TRAIL (CPT), which consists of 166 amino acid residues; SEQ ID No:2 (protein)
chain: TLSSPNSKNEKALGRKINSWESSRSGHSFLSNLHLRNGELVIHEKGFYYIYSQTYFRFQEEIKENTKNDKQMVQYIYKYTSYPDPILLMKSARNSCWSKDAEYGLYSIYQGGIFELKENDRIFVSVTNEHLIDMDHEASFFGAFLVGGGGGGVAAHITGTRGRSNT
modifications: Synthetically generated peptide
- water solubility of the end product [1]: water soluble
- side or toxic effects on animals [2]: did not exhibit any apparent side or toxic effects
- Body Weight (g) End (human brain glioma U251; CPT 0.6 mg/kg i.p.): 21.0 ± 1.4 g
- RTV (human brain glioma U251; CPT 0.6 mg/kg i.p.): 2.77 ± 1.97
- T/C (%) (human brain glioma U251; CPT 0.6 mg/kg i.p.): 82.9%
- Tumor volume (mm^3) End (human brain glioma U251; CPT 0.6 mg/kg i.p.): 961 ± 582 mm^3
- Tumor weight (human brain glioma U251; CPT 0.6 mg/kg i.p.): 0.89 ± 0.49 g
- Body Weight (g) Start (human brain glioma U251; CPT 0.6 mg/kg i.p.): 21.0 ± 0.8 g
- Tumor volume (mm^3) Start (human brain glioma U251; CPT 0.6 mg/kg i.p.): 141 ± 40 mm^3
- Inhibition rate (%) (human brain glioma U251; CPT 0.6 mg/kg i.p.): 30.5%
- Body Weight (g) End (human brain glioma U251; CPT 1.7 mg/kg i.p.): 21.5 ± 2.0 g
- RTV (human brain glioma U251; CPT 1.7 mg/kg i.p.): 2.12 ± 1.29
- T/C (%) (human brain glioma U251; CPT 1.7 mg/kg i.p.): 63.5%
- Tumor volume (mm^3) End (human brain glioma U251; CPT 1.7 mg/kg i.p.): 588 ± 215** mm^3
- Tumor weight (human brain glioma U251; CPT 1.7 mg/kg i.p.): 0.71 ± 0.22 g
- Body Weight (g) Start (human brain glioma U251; CPT 1.7 mg/kg i.p.): 21.6 ± 1.2 g
- Tumor volume (mm^3) Start (human brain glioma U251; CPT 1.7 mg/kg i.p.): 131 ± 34 mm^3
- Inhibition rate (%) (human brain glioma U251; CPT 1.7 mg/kg i.p.): 44.5%
- Body Weight (g) End (human brain glioma U251; CPT 5.0 mg/kg i.p.): 21.9 ± 3.2 g
- RTV (human brain glioma U251; CPT 5.0 mg/kg i.p.): 1.32 ± 1.24
- T/C (%) (human brain glioma U251; CPT 5.0 mg/kg i.p.): 39.5%
- Tumor volume (mm^3) End (human brain glioma U251; CPT 5.0 mg/kg i.p.): 510 ± 333** mm^3
- Tumor weight (human brain glioma U251; CPT 5.0 mg/kg i.p.): 0.45 ± 0.26 g
- Body Weight (g) Start (human brain glioma U251; CPT 5.0 mg/kg i.p.): 22.0 ± 1.1 g
- Tumor volume (mm^3) Start (human brain glioma U251; CPT 5.0 mg/kg i.p.): 133 ± 57 mm^3
- Inhibition rate (%) (human brain glioma U251; CPT 5.0 mg/kg i.p.): 64.8%
- Body Weight (g) End (human brain glioma U251; CPT 15 mg/kg i.p.): 21.1 ± 1.7 g
- RTV (human brain glioma U251; CPT 15 mg/kg i.p.): 0.71 ± 0.57
- Tumor volume (mm^3) End (human brain glioma U251; CPT 15 mg/kg i.p.): 261 ± 238** mm^3
- Tumor weight (human brain glioma U251; CPT 15 mg/kg i.p.): 0.16 ± 0.15 g
- Body Weight (g) Start (human brain glioma U251; CPT 15 mg/kg i.p.): 21.6 ± 1.1 g
- Tumor volume (mm^3) Start (human brain glioma U251; CPT 15 mg/kg i.p.): 148 ± 58 mm^3
- Inhibition rate (%) (human brain glioma U251; CPT 15 mg/kg i.p.): 87.5% and 87.7%
